Results from article PMC4027190.

Experiment: western blot (and ELISA for N38S) of culture media
Settings: glycan lost; control: wild type

B1: matrix metalloproteinase-9 (MMP-9): mS38 (protein)
parent chain: MSLWQPLVLVLLVLGCCFAAPRQRQSTLVLFPGDLRTNLTDRQLAEEYLYRYGYTRVAEMRGESKSLGPALLLLQKQLSLPETGELDSATLKAMRTPRCGVPDLGRFQTFEGDLKWHHHNITYWIQNYSEDLPRAVIDDAFARAFALWSAVTPLTFTRVYSRDADIVIQFGVAEHGDGYPFDGKDGLLAHAFPPGPGIQGDAHFDDDELWSLGKGVVVPTRFGNADGAACHFPFIFEGRSYSACTTDGRSDGLPWCSTTANYDTDDRFGFCPSERLYTQDGNADGKPCQFPFIFQGQSYSACTTDGRSDGYRWCATTANYDRDKLFGFCPTRADSTVMGGNSAGELCVFPFTFLGKEYSTCTSEGRGDGRLWCATTSNFDSDKKWGFCPDQGYSLFLVAAHEFGHALGLDHSSVPEALMYPMYRFTEGPPLHKDDVNGIRHLYGPRPEPEPRPPTTTTPQPTAPPTVCPTGPPTVHPSERPTAGPTGPPSAGPTGPPTAGPSTATTVPLSPVDDACNVNIFDAIAEIGNQLYLFKDGKYWRFSEGRGSRPQGPFLIADKWPALPRKLDSVFEERLSKKLFFFSGRQVWVYTGASVLGPRRLDKLGLGADVAQVTGALRSGRGKMLLFSGRRLWRFDVKAQMVDPRSASEVDRMFPGVPLDTHDVFQYREKAYFCQDRFYWRVSSRSELNQVDQVGYVTYDILQCPED
Q: With B1 as the protein, how does the expression_or_secretion read?
A: The expression_or_secretion was “no change”.
